Measurements taken from publication PMC3464217 (2012).

What was measured:
Experiment in all cases: SPR
recombinant gp160 [1] = biological target: T1, recombinant gp160 (HIV (IIIB or MN/LAI))
recombinant gp160 [2] = biological target: T1, recombinant gp160; remark: listed apart in the source
recombinant gp160 [3] = biological target: T1, recombinant gp160; remark: listed apart in the source

Binder | koff (recombinant gp160 [1]) | Ka (recombinant gp160 [2]) | Kd (recombinant gp160 [3])
HY (antibody, V domains shown) VH: QVQLEQSGAEVKKPGASVKVSCQASGYRFSHFTVHWVRQAPGQRFEWMGWINPYNGNKEFSAKFQDRVTFTADTSANTAYMELRSLRSADTAVYYCARVGEWGWDDSPYDNYYMDVWGKGTTVIVSS VL: EIVLTQSPGTLSLSPGERATFSCRSSHSIRSRRVAWYQHKPGQAPRLVIHGVSNRASGISDRFSGSGSGTDFTLTITRVEPEDFALYYCQVYGASSYTFGQGTKLERK | 0.018 s⁻¹ | 2.7e+06 M⁻¹ | 370 nM
7B2 (antibody, V domains shown) VH: QVQLVQSGGGVFKPGGSLRLSCEASGFTFTEYYMTWVRQAPGKGLEWLAYISKNGEYSKYSPSSNGRFTISRDNAKNSVFLQLDRLSADDTAVYYCARADGLTYFSELLQYIFDLWGQGARVTVSS VL: DIVMTQSPDSLAVSPGERATIHCKSSQTLLYSSNNRHSIAWYQQRPGQPPKLLLYWASMRLSGVPDRFSGSGSGTDFTLTINNLQAEDVAIYYCHQYSSHPPTFGHGTRVELR | 4.9e-05 s⁻¹ | 3.4e+09 M⁻¹ | 0.31 nM
